Results reported in US12168686 (CLOVER BIOPHARMACEUTICALS, dated 2024).

Experiments:
[1] = biological target: T1, soluble DR5-Fc fusion protein (UniProt O14763 56-182, limits assumed, biotin-labeled (sites not given)); test: BLI (ForteBio Octet), biotin-labeled DR5-Fc on streptavidin sensors
T1 construct: It was biotinylated and captured on streptavidin biosensors; also called DR5 (TRAIL-R2); biotinylated DR5-Fc; not shown: Fc part
Source text: (§1) Figure 7: FIG. 7 is the kinetic studies of TRAIL-Trimer, TRAIL-Fc and native TRAIL binding to the soluble DR5-Fc fusion protein assessed by biolayer interferometry measurements. The Super Streptavidin biosensor tips of the ForteBio Octet RED 96 were coated with biotinylated DR5-Fc. The biosensor tips were dipped in increasing concentrations gradient of TRAIL-Trimer, TRAIL-Fc and native TRAIL to measure their binding to DR5-Fc and subsequently moved to wells containing buffer (PBS) to measure dissociation rates. The dissociation constant Kd was shown for each graph. Figure 7: Figure 7:
(§2) Comparison of TRAIL-Trimer, TRAIL-Fc and Native TRAIL in Receptor Binding Avidity In Vitro DR5 (TRAIL-R2) is one of TRAIL's functional receptors which initiates extrinsic apoptosis pathway signaling upon activation; thus, we examined the binding kinetic profile of TRAIL-Trimer, TRAIL-Fc and native TRAIL to a soluble DR5-Fc fusion protein. With Fortebio biolayer interferometry measurement, the biotin-labeled DR5-Fc was first captured on Streptavidin (SA) sensors, and real-time binding curves were measured and plotted by applying the sensor in gradient concentrations (15.4 nM-123.5 nM) of the three analytes (FIG. 7).

[2] = biological target: T1, soluble DR5-Fc fusion protein; test: biolayer interferometry (ForteBio Octet RED 96), biotinylated DR5-Fc captured on streptavidin biosensor tips, TRAIL-Trimer in solution at graded concentrations
Source text: as §1, §2

T1 sequence (O14763 56-182 limits assumed): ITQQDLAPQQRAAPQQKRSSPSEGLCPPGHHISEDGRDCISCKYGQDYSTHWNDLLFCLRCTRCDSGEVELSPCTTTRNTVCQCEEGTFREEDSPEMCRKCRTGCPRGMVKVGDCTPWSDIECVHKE

koff [1]: < 1e-07 s⁻¹
kon [1]: 81000 M⁻¹ s⁻¹
Kd [2]: < 1 pM
B1: TRAIL-Trimer (mature human TRAIL fused to the C-propeptide of human alpha1(I) collagen, Trimer-Tag, with a mutated BMP-1 site) (ligand)
chain: VRERGPQRVAAHITGTRGRSNTLSSPNSKNEKALGRKINSWESSRSGHSFLSNLHLRNGELVIHEKGFYYIYSQTYFRFQEEIKENTKNDKQMVQYIYKYTSYPDPILLMKSARNSCWSKDAEYGLYSIYQGGIFELKENDRIFVSVTNEHLIDMDHEASFFGAFLVGGSNGLPGPIGPPGPRGRTGDAGPVGPPGPPGPPGPPGPPSAGFDFSFLPQPPQEKAHDGGRYYRANDANVVRDRDLEVDTTLKSLSQQIENIRSPEGSRKNPARTCRDLKMCHSDWKSGEYWIDPNQGCNLDAIKVFCNMETGETCVYPTQPSVAQKNWYISKNPKDKRHVWFGESMTDGFQFEYGGQGSDPADVAIQLTFLRLMSTEASQNITYHCKNSVAYMDQQTGNLKKALLLKGSNEIEIRAEGNSRFTYSVTVDGCTSHTGAWGKTVIEYKTTKSSRLPIIDVAPLDVGAPDQEFGFDVGPVCFL
notes: also called SCB-313; disulfide bond-linked trimeric TRAIL fusion protein
